# Laboratory results as given in patent US20060204979A1 (INVITROGEN, published 2006).
# Numbering of substitutions follows the chain as printed. In names and notes the source's numbering stands.
# B1: RalGDS RA allele 16, R20M (other, not shown: small tags and cut ends)
# chain: YNQQVGDCCIIMVSLDVDNGNMYKSILVTSQDKAPTVIRKAMDKHNLDEDEPEDYELLQIISEDHKLKIPENANVFYAMNSAANYDFILKKR
# B2: RalGDS RA allele 2, L66P (other, not shown: small tags and cut ends)
# chain: B1 chain with M12R, L58P
# notes: also called clone 2
# B3: RalGDS RA allele 4, I77T (other, not shown: small tags and cut ends)
# chain: B1 chain with M12R, I69T
# B4: RalGDS RA allele 22, Q67R (other, not shown: small tags and cut ends)
# chain: B1 chain with M12R, Q59R
# B5: RalGDS RA allele 23, M50V (other, not shown: small tags and cut ends)
# chain: B1 chain with M12R, M42V
# B6: RalGDS RA alleles 3, 8, 27, 30, 35 and 36, L65P (other, not shown: small tags and cut ends)
# chain: B1 chain with M12R, L57P
# notes: Six clones with the same amino acid change; also called clone 3; clone 8
# B7: RalGDS RA alleles 6 and 15, K52E (other, not shown: small tags and cut ends)
# chain: B1 chain with M12R, K44E
# notes: also called clone 6 (RalGDS screen); clone 15
# B8: RalGDS RA alleles 17 and 19, Y31C (other, not shown: small tags and cut ends)
# chain: B1 chain with M12R, Y23C
# notes: also called clone 17; clone 19
# B9: RalGDS ras association (RA) domain expressed from pEXP22/RalGDS as GAL4 AD fusion (other, UniProt Q03386 767-864, looked up, not shown: large carriers)
# chain: SSSLPLYNQQVGDCCIIRVSLDVDNGNMYKSILVTSQDKAPTVIRKAMDKHNLDEDEPEDYELLQIISEDHKLKIPENANVFYAMNSAANYDFILKKR
# notes: domain: ras association domain; Prey; also called RalGDS wild type
# B10: Fos (leucine zipper region), negative control prey with Krev1 (other, UniProt P01100 132-211, looked up, not shown: large carriers)
# chain: LSPEEEEKRRIRRERNKMAAAKCRNRRRELTDTLQAETDQLEDEKSALQTEIANLLKEKEKLEFILAAHRPACKIPDDLG
# notes: domain: leucine zipper region; the only Fos ORF it describes is the leucine zipper region
# Target: T1, Krev1 (full-length ORF) expressed from pEXP32/Krev1 as GAL4 DBD fusion (rat, UniProt P04386 1-147; P62836 1-184)
# Test: cell-based or functional assay
row,Binder,"3-AT Phenotype (concentration of 3-AT required to inhibit growth under histidine selection, HIS3 reporter) [mM]"
1,B1,50
2,B2,10
3,B3,> 100
4,B4,100
5,B5,> 100
6,B6,10
7,B7,10
8,B8,10

# Target: T1, Krev1 (full-length ORF) expressed from …
# Test: yeast two-hybrid (ProQuest)
row,Binder,binding result
1,B9,binds

# Target: T1, Krev1 (full-length ORF) expressed from …
# Test: yeast two-hybrid negative control, HIS3/3-AT reporter
# Experimental: Yeast transformations were performed according to MaV203 competent yeast cell protocol (Invitrogen, Carlsbad, Calif.) using Gateway destination vectors pDEST32 and pDEST 22 (Invitrogen.com). Briefly, 25 μl cells are mixed with 1 μg bait construct (pEXP32-Bait ORF) and 1 μg prey allele library (EXP22-Prey allele library). pEXP32 is an expression construct in which a partner sequence (“bait”) is fused to the GAL4 DBD. pEXP22 is an expression construct in which a target sequence (“prey”) is fused to the GAL4 AD. Next, 180 μl LiAc/PEG solution is added and tube is inverted several times to mix. Incubate at 30° C. for 30 min, add 10 μl DMSO and heat shock at 42° C. for 10 min. Spin down cells at 1800 rpm, resuspend in 1 ml dH2O, serial dilute to 10⁻². Plate 100 μl of dilutions 10⁻¹ and 10⁻² on CSM-LW, and 100 μl undiluted and dilution 10⁻¹ on CSM-LW+5-FOA. Incubate plates at 30° C. for 3-5 five days. Patch colonies from CSM-LW+5-FOA onto CSM-LW (along with positive and negative control patches) and incubate at 30° C. for 2 days. Replica plate onto CSM-LW and CSM-LWH+3-AT (10 mM, 25 mM, 50 mM and 100 mM). […]
# In creating the allele library for RalGDS, it was calculated using the guidelines in Materials and Methods that 200,000 individual Kan⁺ clones was sufficient to provide good library representation for the 296 bp ORF. […]
row,Binder,binding result
1,B10,no binding

# Target: T1, Krev1 (full-length ORF) expressed from …
# Test: yeast two-hybrid; no growth under histidine selection with 10 mM 3-AT, no URA3 activation
# Experimental: To confirm the initial mutant phenotypes, plasmid DNA from the 17 mutant alleles and 6 wild type clones was co-transformed into MaV203 with pEXP32-Krev1. Transformants were tested for their ability to activate the URA3 reporter, as well as the HIS3 reporter in the presence of 10 mM, 25 mM, 50 mM or 100 mM 3-AT. All six wild type clones (7, 9, 11, 12, 20 and 21) produced strong URA⁺ and HIS3/100 mM 3-AT⁺ phenotypes, except clone 20. […] Clone 4 (I77T) and 23 (M50V) were the only mutants displaying a strong growth phenotype in the presence of 100 mM 3-AT.
row,Binder,binding result
1,B2,no binding
2,B6,no binding
3,B7,no binding
4,B8,no binding
